Data on 4 molecules can be found in doi:10.1101/2020.02.01.930206 (bioRxiv, 2020).

Data set [1] addresses T1, full-length mouse DNA2 (mouse, UniProt Q6ZQJ5 1-1062).
T1 sequence: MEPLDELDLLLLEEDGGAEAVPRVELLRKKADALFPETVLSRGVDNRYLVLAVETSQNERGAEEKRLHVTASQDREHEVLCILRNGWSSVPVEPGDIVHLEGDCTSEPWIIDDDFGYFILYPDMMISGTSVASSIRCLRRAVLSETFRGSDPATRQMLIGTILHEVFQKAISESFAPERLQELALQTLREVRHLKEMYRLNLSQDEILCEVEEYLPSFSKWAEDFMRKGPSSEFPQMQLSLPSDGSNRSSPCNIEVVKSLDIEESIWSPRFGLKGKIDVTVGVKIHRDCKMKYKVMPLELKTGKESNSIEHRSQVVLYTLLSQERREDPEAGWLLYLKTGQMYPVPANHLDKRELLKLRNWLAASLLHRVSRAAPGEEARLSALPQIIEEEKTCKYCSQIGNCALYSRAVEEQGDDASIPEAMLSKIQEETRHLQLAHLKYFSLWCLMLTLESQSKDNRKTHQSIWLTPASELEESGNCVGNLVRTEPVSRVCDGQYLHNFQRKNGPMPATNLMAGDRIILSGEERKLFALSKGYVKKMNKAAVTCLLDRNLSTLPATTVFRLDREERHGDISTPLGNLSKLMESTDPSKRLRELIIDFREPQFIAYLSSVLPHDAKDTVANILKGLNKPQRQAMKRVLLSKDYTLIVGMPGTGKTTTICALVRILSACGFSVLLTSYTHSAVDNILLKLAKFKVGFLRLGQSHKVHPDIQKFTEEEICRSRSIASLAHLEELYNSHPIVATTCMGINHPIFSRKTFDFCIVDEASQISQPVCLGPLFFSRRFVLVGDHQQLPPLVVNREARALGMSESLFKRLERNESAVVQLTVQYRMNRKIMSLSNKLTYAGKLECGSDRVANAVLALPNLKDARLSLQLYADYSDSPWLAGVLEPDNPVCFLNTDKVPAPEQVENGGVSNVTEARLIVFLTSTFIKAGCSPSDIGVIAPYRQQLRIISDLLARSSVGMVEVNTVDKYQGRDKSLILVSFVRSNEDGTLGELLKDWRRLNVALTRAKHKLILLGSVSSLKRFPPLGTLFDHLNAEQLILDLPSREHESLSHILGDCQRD
Description: cryo-EM structure.

In data set [2] the target is T2, human primase (PriL-PriS heterodimer) (human, UniProt P49643;P49642).
T2 sequence 1: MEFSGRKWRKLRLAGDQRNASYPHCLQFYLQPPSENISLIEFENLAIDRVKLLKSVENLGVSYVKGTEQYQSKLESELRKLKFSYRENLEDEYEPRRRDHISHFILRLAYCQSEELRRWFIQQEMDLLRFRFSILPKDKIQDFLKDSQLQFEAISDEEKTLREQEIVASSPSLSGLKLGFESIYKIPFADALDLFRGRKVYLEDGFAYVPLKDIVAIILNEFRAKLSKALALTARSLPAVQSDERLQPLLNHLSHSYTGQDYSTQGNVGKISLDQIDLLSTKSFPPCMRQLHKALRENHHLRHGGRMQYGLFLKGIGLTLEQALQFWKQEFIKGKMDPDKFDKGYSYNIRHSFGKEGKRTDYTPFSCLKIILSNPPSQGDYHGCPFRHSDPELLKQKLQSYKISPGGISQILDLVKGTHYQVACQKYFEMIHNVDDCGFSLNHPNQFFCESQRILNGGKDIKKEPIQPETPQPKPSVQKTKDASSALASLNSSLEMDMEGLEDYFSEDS
T2 sequence 2: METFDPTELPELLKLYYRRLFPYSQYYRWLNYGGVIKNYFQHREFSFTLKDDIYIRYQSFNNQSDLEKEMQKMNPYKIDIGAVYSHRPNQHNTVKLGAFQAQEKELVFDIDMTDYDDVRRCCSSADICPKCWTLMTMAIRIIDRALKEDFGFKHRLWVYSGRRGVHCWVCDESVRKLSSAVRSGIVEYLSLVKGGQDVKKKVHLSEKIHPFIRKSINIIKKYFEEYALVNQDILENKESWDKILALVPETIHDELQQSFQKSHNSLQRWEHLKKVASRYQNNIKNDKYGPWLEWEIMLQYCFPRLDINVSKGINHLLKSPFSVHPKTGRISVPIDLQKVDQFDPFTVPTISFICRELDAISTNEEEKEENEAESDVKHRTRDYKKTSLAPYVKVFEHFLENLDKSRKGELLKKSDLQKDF
As to the kind of experiment: ITC. For orientation: Isothermal titration calorimetry measures the heat released or taken up as one component is titrated into another.

Data set [3] concerns the molecule itself. As to the kind of experiment: crystal structure.

B1: human MMS19 (subunit of the purified CTC) (natural protein)
chain: MAAAAAVEAAAPMGALWGLVHDFVVGQQEGPADQVAADVKSGNYTVLQVVEALGSSLENPEPRTRARAIQLLSQVLLHCHTLLLEKEVVHLILFYENRLKDHHLVIPSVLQGLKALSLCVALPPGLAVSVLKAIFQEVHVQSLPQVDRHTVYNIITNFMRTREEELKSLGADFTFGFIQVMDGEKDPRNLLVAFRIVHDLISRDYSLGPFVEELFEVTSCYFPIDFTPPPNDPHGIQREDLILSLRAVLASTPRFAEFLLPLLIEKVDSEVLSAKLDSLQTLNACCAVYGQKELKDFLPSLWASIRREVFQTASERVEAEGLAALHSLTACLSRSVLRADAEDLLDSFLSNILQDCRHHLCEPDMKLVWPSAKLLQAAAGASARACDSVTSNVLPLLLEQFHKHSQSSQRRTILEMLLGFLKLQQKWSYEDKDQRPLNGFKDQLCSLVFMALTDPSTQLQLVGIRTLTVLGAQPDLLSYEDLELAVGHLYRLSFLKEDSQSCRVAALEASGTLAALYPVAFSSHLVPKLAEELRVGESNLTNGDEPTQCSRHLCCLQALSAVSTHPSIVKETLPLLLQHLWQVNRGNMVAQSSDVIAVCQSLRQMAEKCQQDPESCWYFHQTAIPCLLALAVQASMPEKEPSVLRKVLLEDEVLAAMVSVIGTATTHLSPELAAQSVTHIVPLFLDGNVSFLPENSFPSRFQPFQDGSSGQRRLIALLMAFVCSLPRNVEIPQLNQLMRELLELSCCHSCPFSSTAAAKCFAGLLNKHPAGQQLDEFLQLAVDKVEAGLGSGPCRSQAFTLLLWVTKALVLRYHPLSSCLTARLMGLLSDPELGPAAADGFSLLMSDCTDVLTRAGHAEVRIMFRQRFFTDNVPALVQGFHAAPQDVKPNYLKGLSHVLNRLPKPVLLPELPTLLSLLLEALSCPDCVVQLSTLSCLQPLLLEAPQVMSLHVDTLVTKFLNLSSSPSMAVRIAALQCMHALTRLPTPVLLPYKPQVIRALAKPLDDKKRLVRKEAVSARGEWFLLGSPGS
Turning to B1, the binding result in data set [1] is reported as “binds”.

B2: human CIAO1-CIAO2B core complex (complex)
chain 1: not shown
chain 2: MVGGGGVGGGLLENANPLIYQRSGERPVTAGEEDEQVPDSIDAREIFDLIRSINDPEHPLTLEELNVVEQVRVQVSDPESTVAVAFTPTIPHCSMATLIGLSIKVKLLRSLPQRFKMDVHITPGTHASEHAVNKQLADKERVAAALENTHLLEVVNQCLSARS
B2 showed a Kd in data set [2] of 5.4 µM.

B3: human MMS19^710-1030-CIAO1-CIAO2B complex (complex)
chain 1: GQRRLIALLMAFVCSLPRNVEIPQLNQLMRELLELSCCHSCPFSSTAAAKCFAGLLNKHPAGQQLDEFLQLAVDKVEAGLGSGPCRSQAFTLLLWVTKALVLRYHPLSSCLTARLMGLLSDPELGPAAADGFSLLMSDCTDVLTRAGHAEVRIMFRQRFFTDNVPALVQGFHAAPQDVKPNYLKGLSHVLNRLPKPVLLPELPTLLSLLLEALSCPDCVVQLSTLSCLQPLLLEAPQVMSLHVDTLVTKFLNLSSSPSMAVRIAALQCMHALTRLPTPVLLPYKPQVIRALAKPLDDKKRLVRKEAVSARGEWFLLGSPGS
chain 2: not shown
chain 3: B2 chain 2
For the molecule B3, in data set [2], binding was put at a Kd of 0.832 µM.

B4: full-length mouse MMS19 (natural protein)
chain: MAAATGLEEAVAPMGALCGLVQDFVMGQQEGPADQVAADVKSGGYTVLQVVEALGSSLENAEPRTRARGAQLLSQVLLQCHSLLSEKEVVHLILFYENRLKDHHLVVPSVLQGLRALSMSVALPPGLAVSVLKAIFQEVHVQSLLQVDRHTVFSIITNFMRSREEELKGLGADFTFGFIQVMDGEKDPRNLLLAFRIVHDLISKDYSLGPFVEELFEVTSCYFPIDFTPPPNDPYGIQREDLILSLRAVLASTPRFAEFLLPLLIEKVDSEILSAKLDSLQTLNACCAVYGQKELKDFLPSLWASIRREVFQTASERVEAEGLAALHSLTACLSCSVLRADAEDLLGSFLSNILQDCRHHLCEPDMKLVWPSAKLLQAAAGASARACEHLTSNVLPLLLEQFHKHSQSNQRRTILEMILGFLKLQQKWSYEDRDERPLSSFKDQLCSLVFMALTDPSTQLQLVGIRTLTVLGAQPGLLSAEDLELAVGHLYRLTFLEEDSQSCRVAALEASGTLATLYPGAFSRHLLPKLAEELHKGESDVARADGPTKCSRHFRCLQALSAVSTHPSIVKETLPLLLQHLCQANKGNMVTESSEVVAVCQSLQQVAEKCQQDPESYWYFHKTAVPCLFALAVQASMPEKESSVLRKVLLEDEVLAALASVIGTATTHLSPELAAQSVTCIVPLFLDGNTSFLPENSFPDQFQPFQDGSSGQRRLVALLTAFVCSLPRNVEIPQLNRLMRELLKQSCGHSCPFSSTAATKCFAGLLNKQPPGQQLEEFLQLAVGTVEAGLASESSRDQAFTLLLWVTKALVLRYHPLSACLTTRLMGLLSDPELGCAAADGFSLLMSDCTDVLTRAGHADVRIMFRQRFFTDNVPALVQGFHAAPQDVKPNYLKGLSHVLNRLPKPVLLPELPTLLSLLLEALSCPDSVVQLSTLSCLQPLLLEAPQIMSLHVDTLVTKFLNLSSSYSMAVRIAALQCMHALTRLPTSVLLPYKSQVIRALAKPLDDKKRLVRKEAVSARGEWFLLGSPGS
In the case of B4, in data set [3], the binding result is listed as “binds”.

As a reminder, the Kd is the concentration at which binding is half-saturated. Read a low Kd as higher affinity.
